Measurements from paper PMC6201271.

Molecular target: UvrDΔCys(A100C) labeled with Cy3 (E. coli) (UniProt P03018)
Assay: AUC

stoichiometry N (MutL dimer per UvrD-Cy3 monomer): 1
Substance: E. coli MutL protein (from UniProt P23367 1-615) (natural protein)
